Experiment [1] deals with T1, soluble human FcRn (complex of FcRn and β2-microglobulin) (human, UniProt P55899 24-290; P16213 21-119).
T1 construct: also called hFcRn; copies: 1 + 1
Nature of the experiment: SPR (Biacore 3000), human FcRn as analyte, pH 6.0. A general note: SPR reads the build-up and loss of mass on a sensor chip optically.

The target in experiment [2] is T1, soluble human FcRn (complex of FcRn and …). Nature of the experiment: SPR (Biacore 3000), antibody captured on Protein L or anti-human kappa chain antibody, human FcRn as analyte, pH 6.0, steady state affinity. As to the method: (§1) The binding to human FcRn was assessed using Biacore 3000. An antibody was bound to Protein L or rabbit anti-human IgG Kappa chain antibody immobilized onto a sensor chip, human FcRn was added as an analyte for interaction with the antibody, and the affinity (KD) was calculated from the amount of bound human FcRn. Specifically, Protein L or rabbit anti-human IgG Kappa chain antibody was immobilized onto sensor chip CM5 (Biacore) by the amine coupling method using 50 mM Na-phosphate buffer (pH 6.0) containing 150 mM NaCl as the running buffer. Then, an antibody was diluted with a running buffer containing 0.02% Tween20, and injected to be bound to the chip. Human FcRn was then injected and the binding activity of the human FcRn to antibody was assessed.
(§2) The affinity was computed using BlAevaluation Software. The obtained sensorgram was used to calculate the amount of hFcRn bound to the antibody immediately before the end of human FcRn injection. The affinity of the antibody for human FcRn was calculated by fitting with the steady state affinity method.

Experiment [3] has the same target. Described as above. As to the method: as §1, §2
This is another data set of the same source.

Experiment [4] has as its target T2, SR344 (N-terminal 1st to 344th amino acids of soluble human IL-6R) (human, UniProt P08887 20-344, limits assumed).
T2 construct: also called recombinant soluble IL-6 receptor; soluble human IL-6 receptor
T2 sequence (looked up): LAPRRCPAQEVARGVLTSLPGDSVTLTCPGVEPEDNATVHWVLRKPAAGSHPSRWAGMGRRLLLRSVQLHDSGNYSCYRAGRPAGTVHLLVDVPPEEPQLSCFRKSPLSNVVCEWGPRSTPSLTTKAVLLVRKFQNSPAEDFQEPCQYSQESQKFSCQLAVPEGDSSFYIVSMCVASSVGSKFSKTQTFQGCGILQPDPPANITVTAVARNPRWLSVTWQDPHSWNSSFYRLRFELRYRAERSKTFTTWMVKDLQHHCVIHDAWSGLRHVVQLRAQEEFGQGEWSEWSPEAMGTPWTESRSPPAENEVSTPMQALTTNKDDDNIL
Nature of the experiment: SPR (Biacore T100), SR344 as analyte, 37 C.

Experiment [5] concerns the target T2, SR344 (N-terminal 1st to 344th amino …). Nature of the experiment: SPR (Biacore T100), antibody captured on anti-IgG (γ-chain specific) F(ab')2, SR344 as analyte, pH 7.4, 37 C. As to the method: Antigen-antibody reaction kinetics was analyzed using Biacore T100 (GE Healthcare). The SR344-antibody interaction was measured by immobilizing appropriate amounts of anti-IgG (γ-chain specific) F(ab′)2 onto a sensor chip by amine coupling method, binding antibodies of interest onto the chip at pH 7.4, and then flowing IL-6 receptor SR344 adjusted to be various concentrations at pH 7.4 over the chip as an analyte. All measurements were carried out at 37° C. The kinetic parameters, association rate constant kₐ (1/Ms) and dissociation rate constant kd (1/s) were calculated from the sensorgrams obtained by measurement. Then, KD (M) was determined based on the rate constants. The respective parameters were determined using Biacore T100 Evaluation Software (GE Healthcare).

For experiment [6] the target is unchanged. Nature of the experiment: SPR (Biacore T100), antibody captured on Protein A/G, SR344 as analyte, 37 C.
Experiment [7] has the same target. The description is as above. As to the method: The antigen-antibody interaction was measured by immobilizing purified Recomb Protein A/G (Pierce) (hereinafter “Protein A/G”) onto a sensor chip, binding various antibodies onto the chip, and then flowing the antigen over the chip as an analyte. Various concentrations of recombinant soluble IL-6 receptor (SR344) were used as the antigen. The measurement conditions were the same as described in Example 2.
Kinetic analysis was carried out using Biacore-specific data analysis software Biacore T100 Evaluation Software.
This is another data set of the same source.

Experiment [8] has the same target. Described as above. As to the method:
(§3) This measurement was carried out under the same conditions described in Example 2. The running buffer used was HBS-EP+, and the flow rate was 20 μl/min. Each antibody was prepared so that about 100 RU of the antibody was bound to Protein A/G. SR344 was prepared at 0, 0.065, 0.131, and 0.261 μg/ml using HBS-EP+ and used as an analyte. In the first step of the measurement, the antibody in solution was bound to Protein A/G, and the analyte solution was allowed to interact therewith. After three minutes of interaction, the solution was switched to HBS-EP+, and the dissociation phase was monitored for 10 or 15 minutes. After measurement of the dissociation phase, the sensor chip was regenerated by washing with 10 μl of 10 mM glycine-HCl (pH 1.5). The association, dissociation, and regeneration constitute one analysis cycle. Each antibody was measured according to this cycle.
The sensorgram was kinetically analyzed using the Biacore-specific data analysis software, Biacore T100 Evaluation Software.
The source holds these as a separate data set.

Experiment [9] has the same target. Nature of the experiment: SPR (Biacore T100), Protein A/G capture, SR344 at 0, 0.36 and 1.4 µg/ml, 15 min dissociation, 37 C. As to the method:
as §3
The Tm of purified H96/PF1L-IgG1 was determined by the method described in Example 5. The affinity measurement was carried out under essentially the same conditions used in Example 5. Note that the concentration of SR344 was adjusted to 0, 0.36, and 1.4 μg/ml, and the dissociation phase was monitored for 15 minutes.

Experiment [10] shares this target. The description is as above. The source holds these as a separate data set.

Read-outs that look alike come from different tables or passages of the source.

T1 sequence (P55899 24-290 limits assumed, chain 1 of 2): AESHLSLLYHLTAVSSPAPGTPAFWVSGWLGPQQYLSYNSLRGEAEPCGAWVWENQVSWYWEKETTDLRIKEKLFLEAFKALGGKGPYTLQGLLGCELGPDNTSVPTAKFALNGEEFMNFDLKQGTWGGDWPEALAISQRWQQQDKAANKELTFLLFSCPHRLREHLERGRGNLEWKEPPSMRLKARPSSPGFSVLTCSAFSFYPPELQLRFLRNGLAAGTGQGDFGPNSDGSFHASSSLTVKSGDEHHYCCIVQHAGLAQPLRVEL
T1 sequence (P16213 21-119 limits assumed, chain 2 of 2): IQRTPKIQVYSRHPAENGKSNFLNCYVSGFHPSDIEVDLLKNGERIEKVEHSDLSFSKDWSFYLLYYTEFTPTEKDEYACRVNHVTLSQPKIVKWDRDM

B1: WT-M58 (antibody)
heavy: QVQLQESGPGLVRPSQTLSLTCTVSGYSITSDHAWSWVRQPPGRGLEWIGYISYSGITTYNPSLKSRVTMLRDTSKNQFSLRLSSVTAADTAVYYCARSLARTTAMDYWGQGSLVTVSSASTKGPSVFPLAPSSKSTSGGTAALGCLVKDYFPEPVTVSWNSGALTSGVHTFPAVLQSSGLYSLSSVVTVPSSNFGTQTYTCNVDHKPSNTKVDKTVERKSCVECPPCPAPPVAGPSVFLFPPKPKDTLMISRTPEVTCVVVDVSQEDPEVQFNWYVDGVEVHNAKTKPREEQFNSTFRVVSVLTVVHQDWLNGKEYKCKVSNKGLPAPIEKTISKTKGQPREPQVYTLPPSQEEMTKNQVSLTCLVKGFYPSDIAVEWESNGQPENNYKTTPPMLDSDGSFFLYSKLTVDKSRWQEGNVFSCSVMHEALHNHYTQKSLSLSP
light: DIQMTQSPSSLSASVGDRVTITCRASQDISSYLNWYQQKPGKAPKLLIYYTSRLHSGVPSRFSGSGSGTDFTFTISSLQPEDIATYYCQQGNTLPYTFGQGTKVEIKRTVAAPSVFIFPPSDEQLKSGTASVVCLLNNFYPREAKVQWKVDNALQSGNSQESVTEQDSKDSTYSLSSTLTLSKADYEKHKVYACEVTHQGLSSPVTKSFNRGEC
notes: also called M58 (WT)
Consider B1, for which the “binding activity relative to WT-IgG1” value in experiment [1] is around 1.4 fold. The results for the Kd in experiment [2] and in experiment [3] were 1170 nM and 1030 nM, respectively.

B2: Fv3-M73 (antibody, V domains shown)
VH: QVQLQESGPGLVKPSETLSLTCAVSGHSISHDHAWSWVRQPPGEGLEWIGFISYSGITNYNPTLQGRVTISRDNSKNTLYLQMNSLRAEDTAVYYCARSLARTTAMDYWGEGTLVTVSS
VL: DIQMTQSPSSLSASVGDSVTITCQASRDISSHLNWYQQKPGKAPELLIYYGSHLLSGVPSRFSGSGSGTDFTFTISSLEAEDAATYYCGQGNRLPYTFGQGTKVEIER
notes: also called VH4-M73/VL1-kappa
Turning to B2, the “fold higher affinity than TOCILIZUMAB” value in [4] worked out at 3 fold. For the same molecule, in experiment [5], the Kd turned out to be 1 nM, the koff was 0.00087 s⁻¹ and the kon was determined as 850000 M⁻¹ s⁻¹.

B3: Fv4-M73 (antibody, V domains shown)
VH: QVQLQESGPGLVKPSETLSLTCAVSGHSISHDHAWSWVRQPPGEGLEWIGFISYSGITNYNPSLQGRVTISRDNSKNTLYLQMNSLRAEDTAVYYCARSLARTTAMDYWGEGTLVTVSS
VL: DIQMTQSPSSLSASVGDSVTITCQASTDISSHLNWYQQKPGKAPELLIYYGSHLLSGVPSRFSGSGSGTDFTFTISSLEAEDAATYYCGQGNRLPYTFGQGTKVEIER
notes: also called VH3-M73/VL3-kappa
For B3, the “fold higher affinity than TOCILIZUMAB” value in experiment [4] stood at 2 fold. Also, in [5], the Kd amounted to 1.4 nM, the koff turned out to be 0.001 s⁻¹ and the kon was found to be 750000 M⁻¹ s⁻¹.

B4: H53/L28 (antibody, IgG1, V domains shown)
VH: QVQLQESGPGLVKPSETLSLTCAVSGYSISDDHAWSWVRQPPGEGLEWIGYISYSGITNYNPSLKGRVTISRDTSKNQFSLKLSSVTAADTAAYYCARSLARTTAMDYWGEGTLVTVSS
VL: DIQMTQSPSSLSASVGDSVTITCQASQDISSYLNWYQQKPGKAPELLIYYGSELHSGVPSRFSGSGSGTDFTFTISSLEAEDAATYYCQQGNSLPYTFGQGTKVEIE
notes: Made from the vectors of the IgG1 antibody WT
On to B4, for which, in experiment [6], the “fold improved affinity against WT” value was around 6 fold. In experiment [7], the Kd was 0.68 nM, the koff was 0.00052 s⁻¹ and the kon came out at 760000 M⁻¹ s⁻¹. In [8], this molecule showed a Kd of 0.68 nM, a koff of 0.00052 s⁻¹ and a kon of 760000 M⁻¹ s⁻¹.

B5: PF1 antibody (antibody, IgG1, V domains shown)
VH: QVQLQESGPGLVKPSETLSLTCAVSGYSISDDHAWSWVRQPPGEGLEWIGYISYSGITNYNPSLKGRVTISRDTSKNQFSLKLSSVTAADTAAYYCARVLARITAMDYWGEGTLVTVSS
VL: DIQMTQSPSSLSASVGDSVTITCQASQDISSYLNWYQQKPGKAPELLIYYGSELHSGVPSRFSGSGSGTDFTFTISSLEAEDAATYYCGQGNRLPYTFGQGTKVEIE
notes: also called PF1-IgG1; PF1_H/PF1_L
B5: in experiment [6], the “fold improved affinity against WT” value is around 150 fold. In experiment [8], this molecule displayed a Kd of 0.027 nM, a koff of 3.5e-05 s⁻¹ and a kon of 1.3e+06 M⁻¹ s⁻¹. In experiment [9], this molecule showed a Kd of 0.031 nM, a koff of 4.2e-05 s⁻¹ and a kon of 1.4e+06 M⁻¹ s⁻¹. In experiment [10], the Kd amounted to 0.03 nM, the koff was found to be 4.4e-05 s⁻¹ and the kon came to 1.5e+06 M⁻¹ s⁻¹.

The term Kd denotes the equilibrium constant for the complex coming apart. Read a low Kd as higher affinity. As a reminder, the koff is a measure of how fast the partners let go of each other. Lower therefore signals a long-lived complex. For orientation: kon means the second-order rate constant of association. A low value points to slow association.

(Values after patent publication US20150284465A1 (Chugai, published 2015).)
